# Laboratory results: patent publication US20210113652A1, “MASPIN-BASED INHIBITION OF OSTEOCLAST ACTIVITY AND PROMOTION OF BONE FORMATION” (Northwestern University, priority 2016, published 2021)
# B1: Maspin: Maspin (mammary serine protease inhibitor), a serpin protein encoded by the SERPINB5 gene; human wild-type is SEQ ID NO: 1 (protein, listed as Homo sapiens)
# chain: MDALQLANSAFAVDLFKQLCEKEPLGNVLFSPICLSTSLSLAQVGAKGDTANEIGQVLHFENVKDIPFGFQTVTSDVNKLSSFYSLKLIKRLYVDKSLNLSTEFISSTKRPYAKELETVDFKDKLEETKGQINNSIKDLTDGHFENILADNSVNDQTKILVVNAAYFVGKWMKKFPESETKECPFRLNKTDTKPVQMMNMEATFCMGNIDSINCKIIELPFQNKHLSMFILLPKDVEDESTGLEKIEKQLNSESLSQWTNPSTMANAKVKLSIPKFKVEKMIDPKACLENLGLKHIFSEDTSDFSGMSETKGVALSNVIHKVCLEITEDGGDSIEVPGARILQHKDELNADHPFIYIIRHNKTRNIIFFGKFCSP
# Columns and labels:
# RAW246.7 cells = assay: Differentiation assay of pre-osteoclastic RAW246.7 cells under RANKL (TRAP staining); format: cell-based; conditions: maspin 0.1-10 ug/ml; RANKL 50-100 ng/ml; 8 days
# Description: FIG. 3. […] RAW246.7 cells were treated with RANKL (50 -100 ng/ml) and different doses of maspin for 8 days, and cell cultures were used for TRAP staining.
# [1] = system: mature osteoclasts from RAW246.7; assay: Osteoclast actin ring formation (phalloidin staining); format: cell-based; conditions: RANKL 50 ng/ml pre-culture 8 days; 2 hours at 37° C.
# Description: FIG. 6. Panels A-C: Maspin inhibits osteoclast actin ring formation. Osteoclasts display osteolytic activity by forming actin rings. RAW246.7 were pre-cultured with RANKL (50 ng/ml) for 8 days to form mature osteoclasts. Cells were first washed with cold PBS twice to disrupt actin rings, warm medium with RANKL were added to cell culture with or without Gst or GST-maspin and cells were then cultured for 2 hours at 37° C. Cells were then washed and stained with phalloidin for actin ring formation. Cells with strong and clear actin ring belts were counted as positive. Five fields of cell staining were counted for each sample and experiments repeated three times. The percentage of cells forming strong and clear actin rings was calculated.
# [2] = system: mouse tibiae inoculated with mammary tumor cells TM40D or maspin-expressing TM40D-Mp; assay: Osteolytic bone degradation in tumor-inoculated BALB/c mice (X-ray, H&E, TRAP staining of tibiae); format: in vivo
# Excerpt: FIG. 1. […] Panel A-B: Representative X-ray radiographs of mouse tibiae inoculated with mammary tumor cells TM40D (Panel A) or maspin-expressing TM40D-Mp tumor cells (Panel B), at the end point of 4 weeks following tumor inoculation. Note that mice inoculated with TM40D tumors display severe osteolytic lesion comparing to that with TM40D-Mp cells. Panel E: Summary of osteolytic lesion data (radiography analysis) in 20 mice (10 mice/group) at 2-week and 4-week time points. Panel C: Histological analysis of bone section of tumor-inoculated tibiae by H&E staining. Arrow heads indicate osteoclastic cells. Panel D: TRAP (tartrate-resistant acid phosphatase) staining of osteoclastic cells in bone sections. Arrows indicate osteoclastic cells. Panel F: Summary of TRAP staining data of osteoclasts in mouse tibiae inoculated with TM40D or TM40D-Mp cells.
# [3] = Long-term treatment with maspin in animals; format: in vivo
# Excerpt: Because bone is tissue under constant balancing actions between bone-degrading osteoclasts and bone-forming osteoblasts, inhibiting the formation and activity of osteoclasts will favor or promote osteoblastic activity, thereby promoting new bone formation and bone wound healing. Further, maspin is naturally produced by osteoblasts in the bone microenvironment. This represents a previously unappreciated and unexploited mechanism for osteoblast-produced maspin counteracting the effect of osteclastic activity. […] Therefore, maspin may be delivered to human patients as a non-toxic therapeutic product against various bone diseases.
# calvariae = assay: New bone formation in ex vivo calvariae organ culture model; design: species or system BABL/c new-born mice; conditions: 7 days organ culture
# Excerpt: FIG. 7. […] Panel A, calvariae were removed from 4 days-old BABL/c new-born mice and cultured in an ex vivo organ culture medium. They were either treated with or without concentrated conditional medium from mouse mammary tumor TM40D cells or maspin-expressing TM40D-Mp cells or with recombinant maspin (GST-Mp) with or without an anti-maspin antibody for 7 days. H&E staining of representative images were shown. Arrows indicate osteoblast cells. Arrowhead indicates new bone area. Panel B, quantitation of the average number of osteoblasts under different treatments listed in Panel A.
# [4] = overexpression of maspin in vivo; cited from earlier work
# [5] = system: primary bone marrow cells; assay: Osteoclastogenesis in mouse primary bone marrow co-culture assay (TRAP staining); format: cell-based; conditions: bone marrow cells co-cultured with TM40D-Mp vs TM40D cells; TRAP-positive cells with 2 or more nuclei
# Excerpt: FIG. 2. […] Osteoclastogenesis analyses of primary bone marrow cells co-cultured with breast cancer cells with or without maspin expression. (Panel A) Newly isolated primary bone marrow cells only (control). (Panel B) Bone marrow cells co-cultured with mammary tumor TM40D cells. (Panel C) Bone marrow cells co-cultured with maspin-expressing TM40D-Mp cells. (Panel D) Bone marrow cells co-cultured with TM40D-Mp cells and rabbit anti-maspin antibody. (Panel E) Bone marrow cells co-cultured with TM40D-Mp cells and rabbit IgG. (F) Summary of percentage of osteoclasts in co-cultured cells analyzed by TRAP staining. TRAP-positive cells containing 2 or more nuclei are defined as osteoclasts.
molecule,measurement,setting,value
B1,osteoclast formation under RANKL stimulation,RAW246.7 cells,completely inhibits osteoclast formation
same,percentage of cells forming strong and clear actin rings,[1],53%
same,osteoclast numbers (TRAP staining) in mouse tibiae,[2]; TM40D-Mp vs TM40D tumor cells,significantly decreased osteoclast numbers
same,osteolytic bone degradation (radiography),"[2]; tibiae inoculated with TM40D-Mp vs TM40D tumor cells, 2-week and 4-week time points",inhibits osteolytic bone degradation
same,side effects,[3],no side effects
same,new bone formation,calvariae,promotes new bone formation
same,toxic side effects,[4],does not have any observable toxic side effects
same,osteoclast formation,[5],inhibits osteoclast formation
